In assay [1] the target is T1, PD-L1-streptavidin (UniProt Q9NZQ7 19-238). Kind of assay: BLI (BLItz).
The target in assay [2] is T1, PD-L1-streptavidin. Kind of assay: BLI (BLItz). This is another data set of the same source.
The target of assay [3] is T1, PD-L1-streptavidin. As to the kind of experiment: BLI (BLItz); Fig. 12.

T1 sequence (Q9NZQ7 19-238): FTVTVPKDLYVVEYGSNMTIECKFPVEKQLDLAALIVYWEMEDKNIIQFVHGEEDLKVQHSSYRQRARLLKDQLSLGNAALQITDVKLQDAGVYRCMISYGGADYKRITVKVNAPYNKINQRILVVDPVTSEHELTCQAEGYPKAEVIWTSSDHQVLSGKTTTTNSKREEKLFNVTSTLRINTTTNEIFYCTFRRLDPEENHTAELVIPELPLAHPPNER

B1: Q18 (protein)
chain: LDSPDRPWNPPTISPALLVVTEGDQATFTCGLPQTSESFVLNWYRIGPSQQMDKLAAFPEDRSQPGQDTRFRVTQLPNGRDFHMSVVRARRQDSGTYLCVAISLAPKVQIKESLRAELRVTERRAEVRTAHPSPSPRSAGQFQ
Molecule B1 yielded a Kd with PD-L1-streptavidin [1] of 46.9 nM.

B2: Q33 (protein)
chain: LDSPDRPWNPPTISPALLVVTEGDQATFTCSFSRTSESFVLNWYRISPSQQTDKLAAFPEDRSQPGQDTRFRVTQLPNGRDFHMSVVGAQRQDSGTYLCVAISLAPKVQIKESLRAELRVTERRAEVPTAHPSPSPRPAGQFQ
The molecule B2 returned a Kd in the assay with PD-L1-streptavidin [1] of 35.1 nM.

B3: Q10 (protein)
chain: LDSPDRPWNPPTISPALLVVTEGDQATFTCSLSQTSESFVLNWYRISPSQQMDKLAAFPEDRSQPGQDTRFRVTQLPNGRDFHMSVDRARRQDSGSYLCVAISLAPKVQIKESLRAELRVTERRAEVPTAHPSPSPRPAGQFQ
Turning to B3, the affinity with PD-L1-streptavidin [1], expressed as Kd, was 50.1 nM.

B4: glycosylated PD-1 variant JY_Q12-2 (Q34N) (receptor)
chain: LDSPDRPLDPPTISPALLVVTEGDQATFTCSFSNTSKSFVLNWYRISPSQQTDKLAAFPEDRSQPGQDTRFRVTQLPNGRDFHMSVVRARRQDSGTYLCVAISLAPKVQIKESLRAELRVTERRAEVPTAHPSPSPRPACQFQ
modifications: sugar chain at N34 (N-linked glycosylation site restored, expressed in Expi293F)
In turn, B4 returned a Kd with PD-L1-streptavidin [2] of 0.899 nM.

B5: glycosylated PD-1 variant JY_Q12-1 (Q25N) (receptor)
chain: LDSPDRPLDPPTISPALLVVTEGDNATFTCSFSQTSKSFVLNWYRISPSQQTDKLAAFPEDRSQPGQDTRFRVTQLPNGRDFHMSVVRARRQDSGTYLCVAISLAPKVQIKESLRAELRVTERRAEVPTAHPSPSPRPACQFQ
modifications: sugar chain at N25 (N-linked glycosylation site restored, expressed in Expi293F)
The molecule B5 yielded a Kd in the assay with PD-L1-streptavidin [2] of 7.38 nM.

B6: JY-Q12-4 (protein)
chain: LDSPDRPLDPPTISPALLVVTEGDQATFTCSFSQTSKSFVLNWYRISPSQQTDKLAAFPEDRSQPGQDTRFRVTQLPNGRDFHMSVVRARRNDSGTYLCVAISLAPKVQIKESLRAELRVTERRAEVPTAHPSPSPRPACQFQ
As for B6, the Kd with PD-L1-streptavidin [2] stood at 17.3 nM.

B7: aglycosylated PD-1 variant Q12 (JY_Q12), soluble His-tagged protein (receptor)
chain: LDSPDRPLDPPTISPALLVVTEGDQATFTCSFSQTSKSFVLNWYRISPSQQTDKLAAFPEDRSQPGQDTRFRVTQLPNGRDFHMSVVRARRQDSGTYLCVAISLAPKVQIKESLRAELRVTERRAEVPTAHPSPSPRPACQFQ
As for B7, the Kd with PD-L1-streptavidin [1] was found to be 5.49 nM; with PD-L1-streptavidin [3], 5.49 nM; with PD-L1-streptavidin [2], 11 nM.

B8: glycosylated PD-1 variant JY_Q12-3 (Q50N) (receptor)
chain: LDSPDRPLDPPTISPALLVVTEGDQATFTCSFSQTSKSFVLNWYRISPSNQTDKLAAFPEDRSQPGQDTRFRVTQLPNGRDFHMSVVRARRQDSGTYLCVAISLAPKVQIKESLRAELRVTERRAEVPTAHPSPSPRPACQFQ
modifications: sugar chain at N50 (N-linked glycosylation site restored, expressed in Expi293F)
In the case of B8, the affinity with PD-L1-streptavidin [2], expressed as Kd, was 3.24 nM.

Broadly, the Kd is the equilibrium constant for the complex coming apart. Read a low Kd as tighter binding.

The values are drawn from patent publication US20230183318A1 (published 2023).
